Measured values taken from IntAct's records for PubMed 15086532.

B1: Delta-type opioid receptor (Homo sapiens), P41143 (parent)
chain: MEPAPSAGAELQPPLFANASDAYPSACPSAGANASGPPGARSASSLALAIAITALYSAVCAVGLLGNVLVMFGIVRYTKMKTATNIYIFNLALADALATSTLPFQSAKYLMETWPFGELLCKAVLSIDYYNMFTSIFTLTMMSVDRYIAVCHPVKALDFRTPAKAKLINICIWVLASGVGVPIMVMAVTRPRDGAVVCMLQFPSPSWYWDTVTKICVFLFAFVVPILIITVCYGLMLLRLRSVRLLSGSKEKDRSLRRITRMVLVVVGAFVVCWAPIHIFVIVWTLVDIDRRDPLVVAALHLCIALGYANSSLNPVLYAFLDENFKRCFRQLCRKPCGRPDPSSFSRAREATARERVTACTPSDGPGGGAAA

Variants of: B1
Settings: with gasp1_human GPRASP1, Q5JY77
Sequence of gasp1_human GPRASP1, Q5JY77 (Q5JY77 whole entry): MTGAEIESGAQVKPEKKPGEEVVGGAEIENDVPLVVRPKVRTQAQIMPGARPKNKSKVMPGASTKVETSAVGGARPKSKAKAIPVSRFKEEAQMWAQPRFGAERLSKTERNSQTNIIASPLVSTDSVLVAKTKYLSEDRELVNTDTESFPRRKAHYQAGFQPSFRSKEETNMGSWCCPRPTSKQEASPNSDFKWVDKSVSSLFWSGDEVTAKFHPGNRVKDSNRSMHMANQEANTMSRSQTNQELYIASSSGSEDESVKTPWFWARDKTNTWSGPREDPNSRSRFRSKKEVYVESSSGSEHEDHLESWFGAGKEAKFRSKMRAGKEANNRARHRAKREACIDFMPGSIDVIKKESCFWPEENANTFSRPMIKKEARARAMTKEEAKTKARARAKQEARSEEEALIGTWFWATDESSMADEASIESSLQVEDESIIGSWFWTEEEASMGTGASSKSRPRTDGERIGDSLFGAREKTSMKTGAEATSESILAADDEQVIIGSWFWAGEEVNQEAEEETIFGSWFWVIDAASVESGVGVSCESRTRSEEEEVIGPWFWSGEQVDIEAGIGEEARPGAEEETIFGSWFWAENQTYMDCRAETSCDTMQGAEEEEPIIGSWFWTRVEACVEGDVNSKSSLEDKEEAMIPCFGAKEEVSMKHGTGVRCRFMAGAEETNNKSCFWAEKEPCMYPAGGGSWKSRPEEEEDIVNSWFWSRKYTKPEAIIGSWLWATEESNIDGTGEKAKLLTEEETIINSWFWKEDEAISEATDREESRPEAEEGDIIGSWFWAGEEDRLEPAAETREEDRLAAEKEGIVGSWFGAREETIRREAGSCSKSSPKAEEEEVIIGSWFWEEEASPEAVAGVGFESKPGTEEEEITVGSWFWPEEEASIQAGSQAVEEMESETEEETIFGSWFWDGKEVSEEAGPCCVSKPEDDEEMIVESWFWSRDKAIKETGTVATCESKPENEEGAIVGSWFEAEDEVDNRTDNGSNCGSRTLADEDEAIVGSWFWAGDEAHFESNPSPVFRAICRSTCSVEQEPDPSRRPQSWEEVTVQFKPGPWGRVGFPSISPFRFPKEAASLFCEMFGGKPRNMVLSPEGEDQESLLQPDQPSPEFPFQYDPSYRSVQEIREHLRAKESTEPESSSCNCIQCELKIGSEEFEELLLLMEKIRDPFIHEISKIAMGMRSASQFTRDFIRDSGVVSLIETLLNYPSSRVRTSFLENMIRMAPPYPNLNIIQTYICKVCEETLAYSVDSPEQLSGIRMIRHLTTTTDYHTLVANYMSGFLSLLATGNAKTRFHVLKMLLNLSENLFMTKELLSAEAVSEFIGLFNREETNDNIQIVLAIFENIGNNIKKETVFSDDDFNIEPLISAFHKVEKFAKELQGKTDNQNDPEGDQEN

| Variant | effect of a mutation on the interaction |
| --- | --- |
| F325A;K326A | decreasing interaction |
